Results on 2 molecules are retold here after patent US20230122079A1.

What is called Kd is the free concentration of one partner at which half of the binding sites on the other are occupied at equilibrium, for simple one-to-one binding. In general, koff refers to the first-order rate constant of dissociation. For orientation: kon means the rate constant with which the complex forms.

Assay [1] addresses recombinant IL12 (Peprotech) (human) (UniProt P29460). Nature of the assay: SPR; SPR binding to immobilized IL12; kinetics post-digest with Matriptase. A general note: Surface plasmon resonance follows binding to a sensor surface in real time, without labels.
Assay [2] has the same target. Nature of the assay: SPR; SPR binding to immobilized IL12; kinetics post-digest with Matriptase; ka near instrument detection limit.

Sequence of recombinant IL12 (Peprotech) (human) (P29460 23-328 limits assumed, chain 1 of 2): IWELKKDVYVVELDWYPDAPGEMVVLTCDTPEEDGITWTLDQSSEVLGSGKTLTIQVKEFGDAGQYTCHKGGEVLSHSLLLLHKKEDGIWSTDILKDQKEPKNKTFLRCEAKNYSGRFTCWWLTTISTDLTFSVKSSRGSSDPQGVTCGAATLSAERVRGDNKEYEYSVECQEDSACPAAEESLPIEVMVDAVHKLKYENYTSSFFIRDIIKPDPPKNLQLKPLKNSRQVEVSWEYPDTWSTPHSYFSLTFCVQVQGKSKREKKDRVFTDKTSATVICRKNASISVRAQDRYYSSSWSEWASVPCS
Sequence of recombinant IL12 (Peprotech) (human) (chain, as listed by the source limits assumed, chain 2 of 2): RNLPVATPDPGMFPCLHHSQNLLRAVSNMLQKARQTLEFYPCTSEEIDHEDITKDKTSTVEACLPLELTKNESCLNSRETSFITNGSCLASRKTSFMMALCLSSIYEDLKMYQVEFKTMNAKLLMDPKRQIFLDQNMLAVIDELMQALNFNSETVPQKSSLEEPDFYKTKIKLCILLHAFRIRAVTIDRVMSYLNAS

B1: v32910 digested with Matriptase (Fc fusion)
chain: SANAGGGGSGGGGSQVQLVESGGGVVQPGRSLRLSCAASGFTFSSYGMHWVRQAPGKGLEWVAFIRYDGSNKYYADSVKGRFTISRDNSKNTLYLQMNSLRAEDTAVYYCKTHGSHDNWGQGTMVTVSSGGGGSGGGSGGGSGGGGSGGGGSQSVLTQPPSVSGAPGQRVTISCSGSRSNIGSNTVKWYQQLPGTAPKLLIYYNDQRPSGVPDRFSGSKSGTSASLAITGLQAEDEADYYCQSYDRYTHPALLFGTGTKVTVL
With B1, in assay [1], the dissociation constant Kd was 5.37 pM and the koff came out at 4.68e-05 s⁻¹. Besides, the kon in assay [2] was found to be 8.65e+06 M⁻¹ s⁻¹.

B2: v32909 digested with Matriptase (Fc fusion)
chain 1: SANAGGGGSGGGGSQVQLVESGGGVVQPGRSLRLSCAASGFTFSSYGMHWVRQAPGKGLEWVAFIRYDGSNKYYADSVKGRFTISRDNSKNTLYLQMNSLRAEDTAVYYCKTHGSHDNWGQGTMVTVSSGGGGSMSGR
chain 2: SANAGGGGSGGGGSQSVLTQPPSVSGAPGQRVTISCSGSRSNIGSNTVKWYQQLPGTAPKLLIYYNDQRPSGVPDRFSGSKSGTSASLAITGLQAEDEADYYCQSYDRYTHPALLFGTGTKVTVL
In the case of B2, in assay [1], the Kd came out at 1.47 pM and the koff amounted to 6.48e-05 s⁻¹. In assay [2], the kon turned out to be 4.19e+07 M⁻¹ s⁻¹.
